Data from the supplement of paper PMC9112550, “Optimization of the antimicrobial peptide Bac7 by deep mutational scanning” (BMC Biology, 2022).

Each sequence was assayed on Escherichia coli TOP10 (assay: shrunken log2 fold change of peptide-encoding DNA abundance (4.5 h post-induction vs induction); higher = less antimicrobial activity (less host growth inhibition)). Conditions: time post-induction: 4.5 h; library: site-saturation at positions 5, 18, 19, 20.
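Further: peptides expressed intracellularly from a pBAD plasmid library in pooled LB shake-flask culture, induced with 0.3% L-arabinose, DNA abundance read by NGS, three biological replicates, DESeq2 with apeglm shrinkage.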

Row | Sequence | shrunken log2 fold change
1 | RRIRWRPPRLPRPRPRPNIKPRP | -0.384
2 | RRIRGRPPRLPRPRPRPGTVPRP | 0.206
3 | RRIRNRPPRLPRPRPRPKLTPRP | 2
4 | RRIRFRPPRLPRPRPRPMSCPRP | 0.0282
5 | RRIRRRPPRLPRPRPRPYQQPRP | -0.000903
6 | RRIRLRPPRLPRPRPRPFAQPRP | 0.18
7 | RRIRQRPPRLPRPRPRPPCMPRP | -0.0968
8 | RRIRLRPPRLPRPRPRPWWPPRP | 0.0144
9 | RRIRDRPPRLPRPRPRPQRFPRP | 0.095
10 | RRIRNRPPRLPRPRPRPFVIPRP | -0.528
11 | RRIRYRPPRLPRPRPRPVLTPRP | -0.0151
12 | RRIRLRPPRLPRPRPRPDYWPRP | -0.596
13 | RRIRWRPPRLPRPRPRPYMKPRP | -0.459
14 | RRIRSRPPRLPRPRPRPAFKPRP | -0.333
15 | RRIRFRPPRLPRPRPRPDMRPRP | -0.000242
16 | RRIRQRPPRLPRPRPRPDICPRP | -0.0144
17 | RRIRMRPPRLPRPRPRPMEIPRP | -0.129
18 | RRIRQRPPRLPRPRPRPAGMPRP | -0.148
19 | RRIRFRPPRLPRPRPRPQLMPRP | -0.32
20 | RRIRERPPRLPRPRPRPTCKPRP | -0.0222
21 | RRIRHRPPRLPRPRPRPQQGPRP | -0.14
22 | RRIRTRPPRLPRPRPRPKDNPRP | -0.5
23 | RRIRSRPPRLPRPRPRPDMQPRP | -0.00211
24 | RRIRYRPPRLPRPRPRPEMNPRP | -0.0274
25 | RRIRDRPPRLPRPRPRPHQSPRP | 0.0679

Row | Sequence | shrunken log2 fold change
26 | RRIRHRPPRLPRPRPRPSEEPRP | -0.00149
27 | RRIRCRPPRLPRPRPRPQHDPRP | -0.219
28 | RRIRHRPPRLPRPRPRPTVHPRP | -0.755
29 | RRIRNRPPRLPRPRPRPTYKPRP | -0.196
30 | RRIRRRPPRLPRPRPRPLKAPRP | 0.785
31 | RRIRLRPPRLPRPRPRPVFYPRP | -0.5
32 | RRIRPRPPRLPRPRPRPFGLPRP | -0.209
33 | RRIRKRPPRLPRPRPRPAYNPRP | 0.0771
34 | RRIRHRPPRLPRPRPRPSICPRP | 0.0424
35 | RRIRQRPPRLPRPRPRPNKWPRP | -0.0433
36 | RRIRIRPPRLPRPRPRPWPAPRP | -0.768
37 | RRIRPRPPRLPRPRPRPLEMPRP | 0.0597
38 | RRIRIRPPRLPRPRPRPYLCPRP | -0.0937
39 | RRIRQRPPRLPRPRPRPYYRPRP | -0.124
40 | RRIRSRPPRLPRPRPRPELHPRP | 0.249
41 | RRIRSRPPRLPRPRPRPVHGPRP | -0.215
42 | RRIRWRPPRLPRPRPRPIHFPRP | -0.357
43 | RRIRVRPPRLPRPRPRPGDMPRP | -0.136
44 | RRIRLRPPRLPRPRPRPSCNPRP | -0.661
45 | RRIRQRPPRLPRPRPRPKSWPRP | 0.19
46 | RRIRHRPPRLPRPRPRPVDYPRP | -0.253
47 | RRIRARPPRLPRPRPRPFNTPRP | -0.189
48 | RRIRIRPPRLPRPRPRPKHWPRP | 0.357
49 | RRIRHRPPRLPRPRPRPPPVPRP | 0.658
50 | RRIRYRPPRLPRPRPRPQDCPRP | -0.363

Row | Sequence | shrunken log2 fold change
51 | RRIRTRPPRLPRPRPRPWFCPRP | -0.392
52 | RRIRCRPPRLPRPRPRPGFRPRP | 0.498
53 | RRIRFRPPRLPRPRPRPEPTPRP | 0.805
54 | RRIRARPPRLPRPRPRPATTPRP | 0.681
55 | RRIRERPPRLPRPRPRPDLLPRP | -0.183
56 | RRIRPRPPRLPRPRPRPNGYPRP | -0.224
57 | RRIRFRPPRLPRPRPRPRVPPRP | 0.291
58 | RRIRTRPPRLPRPRPRPPSRPRP | 0.191
59 | RRIRYRPPRLPRPRPRPSFIPRP | -0.851
60 | RRIRNRPPRLPRPRPRPTFSPRP | -0.269
61 | RRIRDRPPRLPRPRPRPEEWPRP | 0.0446
62 | RRIRHRPPRLPRPRPRPTTAPRP | 0.0968
63 | RRIRTRPPRLPRPRPRPYDKPRP | -0.389
64 | RRIRYRPPRLPRPRPRPWLIPRP | -0.204
65 | RRIRTRPPRLPRPRPRPHWAPRP | 0.0228
66 | RRIRARPPRLPRPRPRPDHPPRP | 0.297
67 | RRIRGRPPRLPRPRPRPMPDPRP | 0.13
68 | RRIRERPPRLPRPRPRPIHEPRP | 0.0218
69 | RRIRRRPPRLPRPRPRPMDMPRP | 0.0833
70 | RRIRARPPRLPRPRPRPGVAPRP | 1.05
71 | RRIRDRPPRLPRPRPRPDHEPRP | -0.148
72 | RRIRPRPPRLPRPRPRPYRFPRP | -0.261
73 | RRIRDRPPRLPRPRPRPSCDPRP | -0.0948
74 | RRIRFRPPRLPRPRPRPSLIPRP | -1.06
75 | RRIRTRPPRLPRPRPRPPSLPRP | -0.11

Row | Sequence | shrunken log2 fold change
76 | RRIRFRPPRLPRPRPRPDKTPRP | -0.0318
77 | RRIRFRPPRLPRPRPRPLHSPRP | 0.12
78 | RRIRIRPPRLPRPRPRPIPLPRP | 3.4
79 | RRIRFRPPRLPRPRPRPNPEPRP | -0.197
80 | RRIRYRPPRLPRPRPRPMIEPRP | 0.00164
81 | RRIRMRPPRLPRPRPRPHSSPRP | 0.0203
82 | RRIRIRPPRLPRPRPRPYHLPRP | -0.115
83 | RRIRERPPRLPRPRPRPGWEPRP | 0.0307
84 | RRIRARPPRLPRPRPRPAKSPRP | 0.061
85 | RRIRNRPPRLPRPRPRPNRWPRP | 0.105
86 | RRIRDRPPRLPRPRPRPAADPRP | 0.701
87 | RRIRCRPPRLPRPRPRPFWRPRP | 0.0785
88 | RRIRWRPPRLPRPRPRPIVYPRP | -0.0137
89 | RRIRLRPPRLPRPRPRPKVCPRP | 0.0264
90 | RRIRSRPPRLPRPRPRPISAPRP | -0.256
91 | RRIRWRPPRLPRPRPRPRIFPRP | 0.499
92 | RRIRDRPPRLPRPRPRPVERPRP | -0.00663
93 | RRIRQRPPRLPRPRPRPGQVPRP | 0.111
94 | RRIRVRPPRLPRPRPRPPLTPRP | 0.119
95 | RRIRTRPPRLPRPRPRPQKEPRP | 0.0092
96 | RRIRSRPPRLPRPRPRPFFDPRP | 0.192
97 | RRIRDRPPRLPRPRPRPYNEPRP | -0.0252
98 | RRIRLRPPRLPRPRPRPDIWPRP | -0.137
99 | RRIRERPPRLPRPRPRPYAYPRP | -0.000687
100 | RRIRVRPPRLPRPRPRPTSGPRP | 0.0674

Row | Sequence | shrunken log2 fold change
101 | RRIRKRPPRLPRPRPRPPAEPRP | 1.07
102 | RRIRQRPPRLPRPRPRPLPTPRP | 0.131
103 | RRIRYRPPRLPRPRPRPTMVPRP | -0.269
104 | RRIRQRPPRLPRPRPRPRKDPRP | -0.16
105 | RRIRGRPPRLPRPRPRPCMTPRP | 2.89
106 | RRIRWRPPRLPRPRPRPDCWPRP | 0.967
107 | RRIRGRPPRLPRPRPRPNPYPRP | -0.0945
108 | RRIRTRPPRLPRPRPRPGEFPRP | -0.0751
109 | RRIRSRPPRLPRPRPRPSHLPRP | -0.265
110 | RRIRERPPRLPRPRPRPPEWPRP | -0.0429
111 | RRIRLRPPRLPRPRPRPHRMPRP | -0.0961
112 | RRIRMRPPRLPRPRPRPMFGPRP | 0.0113
113 | RRIRFRPPRLPRPRPRPHVCPRP | -0.0299
114 | RRIRHRPPRLPRPRPRPLGLPRP | 0.393
115 | RRIRVRPPRLPRPRPRPRRQPRP | 0.0745
116 | RRIRTRPPRLPRPRPRPKICPRP | -0.292
117 | RRIRWRPPRLPRPRPRPLGYPRP | -0.24
118 | RRIRFRPPRLPRPRPRPCAEPRP | 0.111
119 | RRIRGRPPRLPRPRPRPHWLPRP | 0.14
120 | RRIRPRPPRLPRPRPRPGLGPRP | 0.389
121 | RRIRNRPPRLPRPRPRPYIFPRP | -0.327
122 | RRIRPRPPRLPRPRPRPKLHPRP | -0.00244
123 | RRIRQRPPRLPRPRPRPMFEPRP | 0.118
124 | RRIRDRPPRLPRPRPRPPYSPRP | -0.805
125 | RRIRCRPPRLPRPRPRPPICPRP | -0.248
